B1: library; numbered along this chain (parent)
chain: MAAAGGARLLRAASAVLGGPAGRWLHHAGSRAGSSGLLRNRGPGGSAEASRSLSVSARARSSSEDKITVHFINRDGETLTTKGKVGDSLLDVVVENNLDIDGFGACEGTLACSTCHLIFEDHIYEKLDAITDEENDMLDLAYGLTDRSRLGCQICLTKSMDNMTVRVPETVADARQSIDVGKTS

Variants of: B1
Test: scaled log2 fold change in cell abundance, elesclomol vs control (0 = silent mean, 1 = nonsense mean) (scaled log2 ratio); higher = higher viability under elesclomol (loss of FDX1 cuproptosis function)
Settings: glucose 10 mM
Experimental: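 Deep mutational scan of full-length human FDX1: a pooled saturation-mutagenesis ORF library (every residue 2-184 mutated to all 19 amino acids plus stop, and silent codons where available) was expressed by lentivirus in FDX1-knockout ABC1 (14 days) or HEK293T (11 days) cells grown with elesclomol (ES) or DMSO control. Variant abundance came from ORF sequencing. The log2 fold change (ES vs control, mean of duplicates) was centred on the silent-variant mean (0) and scaled to the nonsense-variant mean (1). Higher values mean greater viability under ES, i.e. loss of FDX1 function in cuproptosis.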

[1] = with ABC1 FDX1 KO, elesclomol 5 nM, 14 days
[2] = with HEK293T FDX1 KO, elesclomol 40 nM, 11 days
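Note: variant abundance is its share of total variant reads in each endpoint sample, from next-generation sequencing of the integrated ORF PCR-amplified out of genomic DNA.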

Row | Variant | scaled log2 fold change [1] | scaled log2 fold change [2]
1 | L89M | 0.256 | 0.404
2 | L89R | 1.16 | 0.853
3 | L89H | 1.34 | 0.109
4 | L89Y | 0.534 | 0.223
5 | L89V | 0.313 | -0.151
6 | L89A | -0.0423 | –
7 | L89P | 0.89 | 0.172
8 | L89E | 0.919 | 0.768
9 | L89G | 0.853 | 0.301
10 | L89S | 1.06 | 0.924
11 | L89C | -0.261 | 0.257
12 | L89F | 0.706 | 0.454
13 | L89Q | 1.64 | 0.508
14 | L89D | 1.11 | 1.26
15 | L89N | 1.2 | 0.434
16 | L89W | 0.552 | 1.33
17 | L89K | 1.05 | 1.47
18 | L89T | -0.121 | -0.104
19 | L90Q | -0.132 | -0.0146
20 | L90E | 0.187 | 0.205
21 | L90P | 0.597 | 0.277
22 | L90A | -0.423 | –
23 | L90R | -0.127 | -0.461
24 | L90F | 0.00898 | -0.179

Row | Variant | scaled log2 fold change [1] | scaled log2 fold change [2]
25 | L90M | -0.268 | -0.239
26 | L90C | 0.079 | 0.931
27 | L90N | 0.293 | -0.049
28 | L90K | 0.0261 | –
29 | L90I | -0.268 | 0.924
30 | L90H | -0.379 | 1.81
31 | L90G | 0.46 | 0.288
32 | L90D | 0.478 | 0.245
33 | S88W | 0.356 | -0.287
34 | S88F | 0.301 | –
35 | S88E | 0.289 | 0.37
36 | S88A | 0.0293 | 0.31
37 | S88G | 0.17 | 0.309
38 | S88I | 0.199 | –
39 | S88C | 0.057 | 1.32
40 | S88V | -0.223 | 0.0665
41 | S88T | -0.996 | -0.234
42 | S88N | 0.582 | –
43 | S88Q | 0.191 | -0.766
44 | S88L | 0.0552 | –
45 | K84Q | 0.0208 | -0.794
46 | K84W | 0.191 | -0.16
47 | K84R | -0.138 | -0.784
48 | K84P | 0.11 | 1.21

Row | Variant | scaled log2 fold change [1] | scaled log2 fold change [2]
49 | K84H | 0.0255 | 0.273
50 | K84M | 0.138 | –
51 | K84N | 0.0469 | 0.28
52 | K84F | 0.195 | 0.127
53 | K84S | 0.112 | 0.32
54 | K84A | -0.0494 | 0.375
55 | K84E | 0.218 | -0.39
56 | K84L | 0.349 | -0.439
57 | K84V | 0.289 | -0.902
58 | K84C | 0.225 | 0.851
59 | K84Y | -0.449 | 0.782
60 | K84T | -0.0915 | -0.906
61 | K84G | -0.452 | -0.00112
62 | K84D | -0.0908 | 0.0439
63 | K84I | 0.197 | 1.03
64 | T78C | -0.0788 | –
65 | T78E | 0.171 | 2.14
66 | T78I | -0.229 | –
67 | T78K | 0.447 | -1.09
68 | T78Y | -0.386 | -0.209
69 | T78N | -0.0446 | -0.273
70 | T78G | -0.0398 | 0.179
71 | T78Q | 0.0403 | -0.00407
72 | T78L | -0.709 | 0.584

Row | Variant | scaled log2 fold change [1] | scaled log2 fold change [2]
73 | T78S | 0.0645 | 0.487
74 | T78V | 0.108 | -0.249
75 | T78R | -0.905 | -0.932
76 | T78P | -0.0243 | -0.366
77 | T78D | 0.00307 | -0.427
78 | T78W | -0.127 | -0.938
79 | T78M | -0.54 | -0.0932
80 | T78H | -0.378 | 1.01
81 | G83D | 0.697 | 0.804
82 | G83A | 0.184 | -0.672
83 | G83R | 0.756 | 0.39
84 | G83T | 0.0201 | -0.4
85 | G83F | 0.576 | 0.231
86 | G83W | 0.275 | -0.151
87 | G83E | 0.881 | 0.975
88 | G83L | 0.777 | 1.06
89 | G83H | 0.285 | -0.572
90 | G83Y | 0.73 | 0.383
91 | G83M | 0.483 | 0.859
92 | G83S | 0.0697 | -1.34
93 | G83V | 0.0583 | 0.224
94 | G83C | 0.0146 | 0.00891
95 | G83N | 0.304 | -0.106
96 | G83P | 0.126 | -0.345

Row | Variant | scaled log2 fold change [1] | scaled log2 fold change [2]
97 | G83Q | 0.455 | 0.716
98 | G83K | 0.72 | 0.427
99 | G83I | 0.557 | 0.712
100 | T81I | 0.266 | 0.81
101 | T81V | 0.0264 | -0.0523
102 | T81A | 0.0513 | 1.11
103 | T81P | 0.103 | 1.32
104 | T81W | -0.0129 | -0.543
105 | T81H | 0.282 | -0.297
106 | T81K | 0.0566 | 0.178
107 | T81Q | -0.159 | -0.00467
108 | T81R | 0.181 | 0.0327
109 | T81Y | -0.015 | -0.0662
110 | T81N | 0.308 | 0.885
111 | T81S | -0.82 | 1.14
112 | T81F | 0.141 | –
113 | T81E | 0.273 | 0.0361
114 | T81G | 0.204 | -1.09
115 | T81L | 0.127 | 0.885
116 | T81C | 0.0149 | -0.28
117 | T81D | -0.11 | -0.616
118 | T81M | -0.27 | 0.26

— the supplement of paper PMC12855868
